Data from publication PMC8431453.

Target: Met receptor tyrosine kinase (human (endogenous in EHMES-1)) (UniProt P08581)
Sequence of UniProt P08581 (P08581 25-1390): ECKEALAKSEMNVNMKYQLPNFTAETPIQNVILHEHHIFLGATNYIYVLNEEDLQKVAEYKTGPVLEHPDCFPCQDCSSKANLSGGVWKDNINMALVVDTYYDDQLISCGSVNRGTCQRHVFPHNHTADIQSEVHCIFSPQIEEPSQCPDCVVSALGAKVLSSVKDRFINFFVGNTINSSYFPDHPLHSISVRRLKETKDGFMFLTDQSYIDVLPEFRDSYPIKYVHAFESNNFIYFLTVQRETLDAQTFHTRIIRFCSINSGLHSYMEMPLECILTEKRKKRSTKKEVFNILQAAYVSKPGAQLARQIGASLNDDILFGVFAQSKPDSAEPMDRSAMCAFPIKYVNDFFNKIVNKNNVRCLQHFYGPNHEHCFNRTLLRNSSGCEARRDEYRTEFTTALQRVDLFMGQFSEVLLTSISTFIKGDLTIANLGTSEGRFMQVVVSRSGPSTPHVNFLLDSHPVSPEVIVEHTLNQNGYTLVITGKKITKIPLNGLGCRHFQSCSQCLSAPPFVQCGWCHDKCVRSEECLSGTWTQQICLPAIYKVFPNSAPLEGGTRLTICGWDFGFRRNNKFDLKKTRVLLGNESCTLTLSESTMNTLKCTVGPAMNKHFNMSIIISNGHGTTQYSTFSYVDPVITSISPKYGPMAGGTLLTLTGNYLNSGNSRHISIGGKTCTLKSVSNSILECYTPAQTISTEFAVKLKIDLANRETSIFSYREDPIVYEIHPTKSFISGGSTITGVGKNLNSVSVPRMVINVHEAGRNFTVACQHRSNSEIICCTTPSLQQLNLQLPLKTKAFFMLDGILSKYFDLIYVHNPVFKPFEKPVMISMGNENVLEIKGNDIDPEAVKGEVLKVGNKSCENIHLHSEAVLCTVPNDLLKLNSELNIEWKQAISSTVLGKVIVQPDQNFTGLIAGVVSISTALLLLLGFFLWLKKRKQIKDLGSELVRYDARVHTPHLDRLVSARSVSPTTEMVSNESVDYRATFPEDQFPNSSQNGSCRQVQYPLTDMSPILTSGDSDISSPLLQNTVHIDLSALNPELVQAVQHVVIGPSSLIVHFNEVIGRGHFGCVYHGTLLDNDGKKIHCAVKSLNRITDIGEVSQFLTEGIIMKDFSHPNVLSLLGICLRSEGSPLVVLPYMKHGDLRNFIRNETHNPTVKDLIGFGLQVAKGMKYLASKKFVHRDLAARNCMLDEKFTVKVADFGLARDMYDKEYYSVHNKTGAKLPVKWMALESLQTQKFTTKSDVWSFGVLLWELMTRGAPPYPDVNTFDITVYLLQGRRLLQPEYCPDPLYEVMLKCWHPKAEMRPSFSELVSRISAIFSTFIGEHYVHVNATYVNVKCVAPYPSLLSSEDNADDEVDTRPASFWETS

Row | Substance | Met Y1234/1235 phosphorylation in EHMES-1 cells, cell-based ELISA, at 30 nM, compared with wild-type NK1 [%] | Met Y1234/1235 phosphorylation in EHMES-1 cells, cell-based ELISA, compared with 30 nM wild-type NK1 (fold of 30 nM wild-type NK1)
1 | K144A mutant NK1 (ligand) | 52.2 | 
2 | N127A mutant NK1 (ligand) | 8.3 | 
3 | V140A mutant NK1 (ligand) | 23.8 | 
4 | wild-type hepatocyte growth factor (two-chain HGF) (from UniProt P14210-3 32-489) (ligand) |  | 2.5
